Test results from patent publication US9073974B2, “RGD-containing cyclic peptides” (The Regents of the University of California, priority 2009, dated 2015).
Bridge positions count the residues as written; N and C are the ends. Square brackets hold non-standard residues; d marks the D form. Primed or numbered codes have the meaning given here. Ends that are not written are not given here. Peptide text beside a SMILES is read from it. * marks the point of attachment. Ebes(3) = 2,2'-ethylenedioxy bis(ethylamine) monosuccinamide, NCCOCCOCCNC(=O)CCC(=O)*; Benzoyl(4-NO2) = O=C(c1ccc([N+](=O)[O-])cc1)*; Pro(5R-Ph) = O=C(O)[C@@H]1CC[C@H](c2ccccc2)N1; d1Nal = N[C@H](Cc1cccc2ccccc12)C(=O)O; dBta = N[C@H](Cc1csc2ccccc12)C(=O)O; Cyclohexylacetyl = O=C(CC1CCCCC1)*; NMeR = CN[C@@H](CCCNC(=N)N)C(=O)O; dCit = NC(=O)NCCC[C@@H](N)C(=O)O; dPen = CC(C)(S)[C@@H](N)C(=O)O; dNMeV = CN[C@@H](C(=O)O)C(C)C; Pentanoyl = CCCCC(=O)*; βAla = NCCC(=O)O; Sar = CNCC(=O)O

B1: LXW57 (peptide)
peptide: {Ebes(3)}-[dC]GRGD[dD][dV][dC]-NH2
modifications: disulfide 1-8
SMILES: CC(C)[C@H]1NC(=O)[C@@H](CC(=O)O)NC(=O)[C@H](CC(=O)O)NC(=O)CNC(=O)[C@H](CCCNC(=N)N)NC(=O)CNC(=O)[C@H](NC(=O)CCC(=O)NCCOCCOCCN)CSSC[C@H](C(N)=O)NC1=O
B2: LXW22 (peptide)
peptide: [dC]GRGD[dD][dNMeV][dC]-NH2
modifications: disulfide 1-8; N-terminus assumed
SMILES: CC(C)[C@@H]1C(=O)N[C@@H](C(N)=O)CSSC[C@@H](N)C(=O)NCC(=O)N[C@@H](CCCNC(=N)N)C(=O)NCC(=O)N[C@@H](CC(=O)O)C(=O)N[C@H](CC(=O)O)C(=O)N1C
B3: LXW12 (peptide)
peptide: Ac-[dC]GRGD[dD][dV][dC]-NH2
modifications: disulfide 1-8
SMILES: CC(=O)N[C@@H]1CSSC[C@H](C(N)=O)NC(=O)[C@@H](C(C)C)NC(=O)[C@@H](CC(=O)O)NC(=O)[C@H](CC(=O)O)NC(=O)CNC(=O)[C@H](CCCNC(=N)N)NC(=O)CNC1=O
B4: LXW56 (peptide)
peptide: {3‑amino propanoyl}-[dC]GRGD[dD][dV][dC]-NH2
modifications: disulfide 1-8
B5: LXW53 (peptide)
peptide: [dC]G[NMeR]GD[dD][dV][dC]-NH2
modifications: disulfide 1-8; N-terminus assumed
SMILES: CC(C)[C@H]1NC(=O)[C@@H](CC(=O)O)NC(=O)[C@H](CC(=O)O)NC(=O)CNC(=O)[C@H](CCCNC(=N)N)N(C)C(=O)CNC(=O)[C@H](N)CSSC[C@H](C(N)=O)NC1=O
B6: LXW13 (peptide)
peptide: [dC][dA]RGD[dD][dV][dC]-NH2
modifications: disulfide 1-8; N-terminus assumed
SMILES: CC(C)[C@H]1NC(=O)[C@@H](CC(=O)O)NC(=O)[C@H](CC(=O)O)NC(=O)CNC(=O)[C@H](CCCNC(=N)N)NC(=O)[C@@H](C)NC(=O)[C@H](N)CSSC[C@H](C(N)=O)NC1=O
B7: LXW10 (peptide)
peptide: [dC]GRGD[dD][dV]C-NH2
modifications: disulfide 1-8; N-terminus assumed
SMILES: CC(C)[C@H]1NC(=O)[C@@H](CC(=O)O)NC(=O)[C@H](CC(=O)O)NC(=O)CNC(=O)[C@H](CCCNC(=N)N)NC(=O)CNC(=O)[C@H](N)CSSC[C@@H](C(N)=O)NC1=O
B8: LXW92 (peptide)
peptide: nicotinyl-[dC]GRGD[dD][dV][dC]-NH2
modifications: disulfide 1-8
B9: LXW90 (peptide)
peptide: {5‑bromo‑2‑furoyl}-[dC]GRGD[dD][dV][dC]-NH2
modifications: disulfide 1-8
B10: LXW14 (peptide)
peptide: [dC][Sar]RGD[dD][dV][dC]-NH2
modifications: disulfide 1-8; N-terminus assumed
SMILES: CC(C)[C@H]1NC(=O)[C@@H](CC(=O)O)NC(=O)[C@H](CC(=O)O)NC(=O)CNC(=O)[C@H](CCCNC(=N)N)NC(=O)CN(C)C(=O)[C@H](N)CSSC[C@H](C(N)=O)NC1=O
B11: LXW78 (peptide)
peptide: Cyclohexylacetyl-[dC]GRGD[dD][dV][dC]-NH2
modifications: disulfide 1-8
SMILES: CC(C)[C@H]1NC(=O)[C@@H](CC(=O)O)NC(=O)[C@H](CC(=O)O)NC(=O)CNC(=O)[C@H](CCCNC(=N)N)NC(=O)CNC(=O)[C@H](NC(=O)CC2CCCCC2)CSSC[C@H](C(N)=O)NC1=O
B12: LXW15 (peptide)
peptide: [dC][βAla]RGD[dD][dV][dC]-NH2
modifications: disulfide 1-8; N-terminus assumed
SMILES: CC(C)[C@H]1NC(=O)[C@@H](CC(=O)O)NC(=O)[C@H](CC(=O)O)NC(=O)CNC(=O)[C@H](CCCNC(=N)N)NC(=O)CCNC(=O)[C@H](N)CSSC[C@H](C(N)=O)NC1=O
B13: LXW47 (peptide)
peptide: CGRGD[dD][d1Nal]C-NH2
modifications: disulfide 1-8; N-terminus assumed
SMILES: N=C(N)NCCC[C@@H]1NC(=O)CNC(=O)[C@@H](N)CSSC[C@@H](C(N)=O)NC(=O)[C@@H](Cc2cccc3ccccc23)NC(=O)[C@@H](CC(=O)O)NC(=O)[C@H](CC(=O)O)NC(=O)CNC1=O
notes: also called CGRGDd-DNal1-C
B14: LXW81 (peptide)
peptide: {p‑chlorophenyl acetyl}-[dC]GRGD[dD][dV][dC]-NH2
modifications: disulfide 1-8
B15: LXW9 (peptide)
peptide: CGRGD[dD][dV][dC]-NH2
modifications: disulfide 1-8; N-terminus assumed
SMILES: CC(C)[C@H]1NC(=O)[C@@H](CC(=O)O)NC(=O)[C@H](CC(=O)O)NC(=O)CNC(=O)[C@H](CCCNC(=N)N)NC(=O)CNC(=O)[C@@H](N)CSSC[C@H](C(N)=O)NC1=O
B16: LXW73 (peptide)
peptide: [dC]GRGD[dCit][dBta][dC]-NH2
modifications: disulfide 1-8; N-terminus assumed
SMILES: N=C(N)NCCC[C@@H]1NC(=O)CNC(=O)[C@H](N)CSSC[C@H](C(N)=O)NC(=O)[C@@H](Cc2csc3ccccc23)NC(=O)[C@@H](CCCNC(N)=O)NC(=O)[C@H](CC(=O)O)NC(=O)CNC1=O
B17: LXW82 (peptide)
peptide: {Benzoyl(4-NO2)}-[dC]GRGD[dD][dV][dC]-NH2
modifications: disulfide 1-8
SMILES: CC(C)[C@H]1NC(=O)[C@@H](CC(=O)O)NC(=O)[C@H](CC(=O)O)NC(=O)CNC(=O)[C@H](CCCNC(=N)N)NC(=O)CNC(=O)[C@H](NC(=O)c2ccc([N+](=O)[O-])cc2)CSSC[C@H](C(N)=O)NC1=O
B18: LXW77 (peptide)
peptide: Pentanoyl-[dC]GRGD[dD][dV][dC]-NH2
modifications: disulfide 1-8
SMILES: CCCCC(=O)N[C@@H]1CSSC[C@H](C(N)=O)NC(=O)[C@@H](C(C)C)NC(=O)[C@@H](CC(=O)O)NC(=O)[C@H](CC(=O)O)NC(=O)CNC(=O)[C@H](CCCNC(=N)N)NC(=O)CNC1=O
B19: LXW20 (peptide)
peptide: [dPen]GRGD[dD][dV][dC]-NH2
modifications: disulfide 1-8; N-terminus assumed
SMILES: CC(C)[C@H]1NC(=O)[C@@H](CC(=O)O)NC(=O)[C@H](CC(=O)O)NC(=O)CNC(=O)[C@H](CCCNC(=N)N)NC(=O)CNC(=O)[C@H](N)C(C)(C)SSC[C@H](C(N)=O)NC1=O
B20: LXW71 (peptide)
peptide: [dC]GRGD[dE][Pro(5R-Ph)][dC]-NH2
modifications: disulfide 1-8; N-terminus assumed
SMILES: N=C(N)NCCC[C@@H]1NC(=O)CNC(=O)[C@H](N)CSSC[C@H](C(N)=O)NC(=O)[C@@H]2CC[C@H](c3ccccc3)N2C(=O)[C@@H](CCC(=O)O)NC(=O)[C@H](CC(=O)O)NC(=O)CNC1=O
B21: LXW26 (peptide)
peptide: [dC]GRGD[dD][dI][dC]-NH2
modifications: disulfide 1-8; N-terminus assumed
SMILES: CC[C@@H](C)[C@H]1NC(=O)[C@@H](CC(=O)O)NC(=O)[C@H](CC(=O)O)NC(=O)CNC(=O)[C@H](CCCNC(=N)N)NC(=O)CNC(=O)[C@H](N)CSSC[C@H](C(N)=O)NC1=O
B22: LXW21 (peptide)
peptide: [dC]GRGD[dD][dV][dPen]-NH2
modifications: disulfide 1-8; N-terminus assumed
SMILES: CC(C)[C@H]1NC(=O)[C@@H](CC(=O)O)NC(=O)[C@H](CC(=O)O)NC(=O)CNC(=O)[C@H](CCCNC(=N)N)NC(=O)CNC(=O)[C@H](N)CSSC(C)(C)[C@H](C(N)=O)NC1=O
B23: LXW19 (peptide)
peptide: [dPen]GRGD[dD][dV][dPen]-NH2
modifications: disulfide 1-8; N-terminus assumed
SMILES: CC(C)[C@H]1NC(=O)[C@@H](CC(=O)O)NC(=O)[C@H](CC(=O)O)NC(=O)CNC(=O)[C@H](CCCNC(=N)N)NC(=O)CNC(=O)[C@H](N)C(C)(C)SSC(C)(C)[C@H](C(N)=O)NC1=O

biological target: T1, αvβ3 integrin (human, UniProt P06756 31-1048; P05106 27-788); assay: flow cytometry, competition with biotinylated LXW7 on αvβ3-K562 cells; +++ = IC50 <1 µM; details: not given
T1 construct: whole, on cells; Same entry used for αvβ3-K562, U-87 MG and A375M cells; also called αvβ3-K562; αvβ3 transfected K562 cells
T1 sequence (P06756 31-1048, chain 1 of 2): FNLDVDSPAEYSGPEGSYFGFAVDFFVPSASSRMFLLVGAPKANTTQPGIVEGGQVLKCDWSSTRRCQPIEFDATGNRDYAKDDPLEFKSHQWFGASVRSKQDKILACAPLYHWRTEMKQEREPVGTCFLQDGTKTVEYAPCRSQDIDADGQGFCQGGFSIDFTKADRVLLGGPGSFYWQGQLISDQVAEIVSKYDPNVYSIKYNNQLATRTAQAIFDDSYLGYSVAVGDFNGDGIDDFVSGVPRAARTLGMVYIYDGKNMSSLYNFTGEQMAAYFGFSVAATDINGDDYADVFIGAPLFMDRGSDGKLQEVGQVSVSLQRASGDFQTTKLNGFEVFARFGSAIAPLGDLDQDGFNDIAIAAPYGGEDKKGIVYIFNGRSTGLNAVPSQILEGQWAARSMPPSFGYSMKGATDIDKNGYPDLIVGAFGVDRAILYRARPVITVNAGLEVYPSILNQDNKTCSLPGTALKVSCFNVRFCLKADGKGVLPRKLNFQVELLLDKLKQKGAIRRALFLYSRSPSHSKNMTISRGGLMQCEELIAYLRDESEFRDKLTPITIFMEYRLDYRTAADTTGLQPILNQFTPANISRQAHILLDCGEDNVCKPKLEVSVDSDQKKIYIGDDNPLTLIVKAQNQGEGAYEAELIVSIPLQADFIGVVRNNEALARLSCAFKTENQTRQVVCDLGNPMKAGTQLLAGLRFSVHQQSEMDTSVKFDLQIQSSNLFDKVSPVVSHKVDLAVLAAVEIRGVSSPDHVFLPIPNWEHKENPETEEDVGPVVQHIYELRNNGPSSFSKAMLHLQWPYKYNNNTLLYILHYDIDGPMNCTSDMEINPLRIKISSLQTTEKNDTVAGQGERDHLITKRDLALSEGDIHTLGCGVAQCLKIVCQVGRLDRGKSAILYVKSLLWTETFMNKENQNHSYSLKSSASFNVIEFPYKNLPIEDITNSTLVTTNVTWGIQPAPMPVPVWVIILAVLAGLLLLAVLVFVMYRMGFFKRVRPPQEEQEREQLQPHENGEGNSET
T1 sequence (P05106 27-788, chain 2 of 2): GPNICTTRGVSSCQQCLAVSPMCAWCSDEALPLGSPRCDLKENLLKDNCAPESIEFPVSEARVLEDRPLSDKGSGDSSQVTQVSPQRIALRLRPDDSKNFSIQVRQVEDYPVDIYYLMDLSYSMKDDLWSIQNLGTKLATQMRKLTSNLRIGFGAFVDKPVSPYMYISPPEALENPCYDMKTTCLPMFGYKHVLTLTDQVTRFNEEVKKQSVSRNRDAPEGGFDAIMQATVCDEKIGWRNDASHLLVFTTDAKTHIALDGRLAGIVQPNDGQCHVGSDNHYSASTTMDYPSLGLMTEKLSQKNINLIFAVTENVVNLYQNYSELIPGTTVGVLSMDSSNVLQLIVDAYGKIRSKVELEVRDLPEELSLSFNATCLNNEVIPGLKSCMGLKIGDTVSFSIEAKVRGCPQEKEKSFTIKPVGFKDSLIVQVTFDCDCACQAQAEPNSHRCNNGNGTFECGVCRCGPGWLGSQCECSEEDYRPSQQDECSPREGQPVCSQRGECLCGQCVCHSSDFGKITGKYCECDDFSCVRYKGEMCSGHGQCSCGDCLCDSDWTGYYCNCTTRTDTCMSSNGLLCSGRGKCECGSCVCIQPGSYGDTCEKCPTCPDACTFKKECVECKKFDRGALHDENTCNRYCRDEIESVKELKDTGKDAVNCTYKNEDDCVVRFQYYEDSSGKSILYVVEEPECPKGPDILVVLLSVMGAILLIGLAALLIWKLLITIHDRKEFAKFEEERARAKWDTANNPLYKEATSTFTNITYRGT

IC50, < 1000 nM:
B1
B2
B3
B4
B5

biological target: T1, αvβ3 integrin; assay: flow cytometry, competition with biotinylated LXW7 on αvβ3-K562 cells; ++ = IC50 1-10 µM; details: not given

IC50, 1000 to 10000 nM:
B6
B7
B8
B9
B10
B11
B12
B13
B14
B15
B16
B17
B18
B19
B20
B21
B22
B23

biological target: αvβ3 integrin (Homo sapiens, UniProt P05106+P06756); assay: Inhibition of biotinylated LXW7 binding to αvβ3-K562 cells (flow cytometry); parameters: expressed in transfected cells; host or cells: K562 (gift of Dr. Yoshikazu Takada, UC Davis); details: LXW9-92: inhibiting the binding of biotinylated LXW7 against αvβ3-K562 cells; class symbols
Sequence (P06756 31-889 limits assumed): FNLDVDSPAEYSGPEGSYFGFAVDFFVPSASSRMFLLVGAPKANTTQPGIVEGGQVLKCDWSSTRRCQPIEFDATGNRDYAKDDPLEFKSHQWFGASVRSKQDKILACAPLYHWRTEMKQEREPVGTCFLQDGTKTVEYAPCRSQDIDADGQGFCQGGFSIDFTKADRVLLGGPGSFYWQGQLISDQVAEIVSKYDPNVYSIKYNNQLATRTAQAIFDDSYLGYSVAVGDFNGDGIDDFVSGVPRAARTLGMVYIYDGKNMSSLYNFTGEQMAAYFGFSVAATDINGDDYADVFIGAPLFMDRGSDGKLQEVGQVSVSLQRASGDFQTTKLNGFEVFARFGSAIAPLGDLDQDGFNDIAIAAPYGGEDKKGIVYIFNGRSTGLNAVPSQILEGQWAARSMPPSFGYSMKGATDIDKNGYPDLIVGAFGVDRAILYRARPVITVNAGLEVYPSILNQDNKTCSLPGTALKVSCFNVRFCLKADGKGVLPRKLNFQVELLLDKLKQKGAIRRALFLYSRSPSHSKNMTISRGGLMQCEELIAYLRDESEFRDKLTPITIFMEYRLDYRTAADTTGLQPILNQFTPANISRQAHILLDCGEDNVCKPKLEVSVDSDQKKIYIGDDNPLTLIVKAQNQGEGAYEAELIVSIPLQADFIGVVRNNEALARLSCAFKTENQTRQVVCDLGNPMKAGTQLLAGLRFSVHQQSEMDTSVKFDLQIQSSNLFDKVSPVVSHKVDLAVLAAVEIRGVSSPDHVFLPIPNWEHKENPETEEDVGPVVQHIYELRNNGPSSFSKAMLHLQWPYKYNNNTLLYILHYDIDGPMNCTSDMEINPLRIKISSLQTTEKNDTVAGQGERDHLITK
Sequence (P06756 891-1048 partner limits assumed): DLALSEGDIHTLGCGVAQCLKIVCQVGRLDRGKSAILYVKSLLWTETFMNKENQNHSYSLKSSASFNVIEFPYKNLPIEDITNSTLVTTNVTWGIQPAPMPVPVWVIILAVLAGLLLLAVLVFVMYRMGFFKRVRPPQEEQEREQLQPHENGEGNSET
Sequence (P05106 27-788): as the sequence (P05106 27-788, chain 2 of 2) above
Experimental: The apparent IC50 were calculated using Graph Prism software (≦www.graphpad.com≧).
The samples were analyzed with Coulter XL-MCL flow cytometry. The histogram and mean fluorescence intensity (MFI) were determined. The apparent Kd, IC50 were calculated using Graph Prism software (≦www.graphpad.com≧).

IC50, > 10000 nM:
C#CC[C@H]1NC(=O)[C@@H](CC(=O)O)NC(=O)[C@H](CC(=O)O)NC(=O)CNC(=O)[C@H](CCCNC(=N)N)NC(=O)CN(C)C(=O)[C@@H](N)CSSC[C@@H](C(N)=O)NC1=O [LXW35, C-Sar-RGDd-DPra-C]

IC50, 1000 to 10000 nM:
CC(C)[C@H]1NC(=O)[C@@H](CC(=O)O)NC(=O)[C@H](CC(=O)O)NC(=O)CNC(=O)[C@H](CCCNC(=N)N)NC(=O)CNC(=O)[C@H](N)C(C)(C)SSC(C)(C)[C@H](C(N)=O)NC1=O [LXW19, DPen-GRGDdv-DPen] (H-[dPen]GRGD[dD][dV][dPen]-NH2; disulfide 1-8)
